What was measured:
[1] = Specific activities of recombinant enzymes towards different substrates (Kredich and Tomkins); assay type: biochemical
Source text: Specific activities (micromol/min/mg protein) towards different substrates
(§1) Assayed according to Kredich and Tomkins (Journal of Biological Chemistry 241, 4955-4965, 1966)

[2] = Kinetic properties of recombinant enzymes; assay type: biochemical; details: ± SD, n in brackets
Source text: as §1

[3] = substrate O-succinyl-L-homoserine

B1: PA3107: Recombinant N-terminal His-tagged O-acetyl-L-homoserine thiol lyase from Pseudomonas aeruginosa, encoded by gene PA3107 (MetZ, Genbank AAA83435) (protein, UniProt P55218 1-403, looked up)
O-succinylhomoserine …: MTQDWDAGRLDSDLEGAAFDTLAVRAGQRRTPEGEHGEALFTTSSYVFRTAADAAARFAGEVPGNVYSRYTNPTVRTFEERIAALEGAEQAVATASGMSAILALVMSLCSSGDHVLVSRSVFGSTISLFDKYFKRFGIQVDYPPLSDLAAWEAACKPNTKLFFVESPSNPLAELVDIAALAEIAHAKGALLAVDNCFCTPALQQPLKLGADVVIHSATKYIDGQGRGMGGVVAGRGEQMKEVVGFLRTAGPTLSPFNAWLFLKGLETLRIRMQAHSASALALAEWLERQPGIERVYYAGLPSHPQHELARRQQSGFGAVVSFDVKGGRDAAWRFIDATRMVSITTNLGDTKTTIAHPATTSHGRLSPEDRARAGIGDSLIRVAVGLEDLDDLKADMARGLAAL
modifications: N-terminal His tag
For B1, the Specific activity ([1]; substrate O-acetyl-L-homoserine) was <0.1 micromol/min/mg protein, the Specific activity ([1]; substrate O-acetyl-serine) was <0.1 micromol/min/mg protein and the Specific activity [1, 3] was 139 micromol/min/mg protein. The Km ([2]; Km for Na2S, determined with 15 mM O-succinyl-L-homoserine) was 800 ± 200 µM, the Km ([2]; Km for O-succinyl-L-homoserine) was 4400 ± 1000 µM and the Vmax ([2]; substrate Na2S) was 174.2 ± 39.8 (3) μmol/min/mg protein. The Vmax [2, 3] was 180.4 ± 21.0 (3) μmol/min/mg protein.

Source: patent publication US20070065896A1, “Methods and kits for quantifying metabolites or analytes” (priority 2003, published 2007)
